Biological target: DCC (endogenous, embryonic rat cortical neurons) (rat (endogenous in E18 cortical neurons), UniProt Q63155 26-1445)
Assay: co-IP

Sequence of DCC (endogenous, embryonic rat cortical neurons) (Q63155 26-1445): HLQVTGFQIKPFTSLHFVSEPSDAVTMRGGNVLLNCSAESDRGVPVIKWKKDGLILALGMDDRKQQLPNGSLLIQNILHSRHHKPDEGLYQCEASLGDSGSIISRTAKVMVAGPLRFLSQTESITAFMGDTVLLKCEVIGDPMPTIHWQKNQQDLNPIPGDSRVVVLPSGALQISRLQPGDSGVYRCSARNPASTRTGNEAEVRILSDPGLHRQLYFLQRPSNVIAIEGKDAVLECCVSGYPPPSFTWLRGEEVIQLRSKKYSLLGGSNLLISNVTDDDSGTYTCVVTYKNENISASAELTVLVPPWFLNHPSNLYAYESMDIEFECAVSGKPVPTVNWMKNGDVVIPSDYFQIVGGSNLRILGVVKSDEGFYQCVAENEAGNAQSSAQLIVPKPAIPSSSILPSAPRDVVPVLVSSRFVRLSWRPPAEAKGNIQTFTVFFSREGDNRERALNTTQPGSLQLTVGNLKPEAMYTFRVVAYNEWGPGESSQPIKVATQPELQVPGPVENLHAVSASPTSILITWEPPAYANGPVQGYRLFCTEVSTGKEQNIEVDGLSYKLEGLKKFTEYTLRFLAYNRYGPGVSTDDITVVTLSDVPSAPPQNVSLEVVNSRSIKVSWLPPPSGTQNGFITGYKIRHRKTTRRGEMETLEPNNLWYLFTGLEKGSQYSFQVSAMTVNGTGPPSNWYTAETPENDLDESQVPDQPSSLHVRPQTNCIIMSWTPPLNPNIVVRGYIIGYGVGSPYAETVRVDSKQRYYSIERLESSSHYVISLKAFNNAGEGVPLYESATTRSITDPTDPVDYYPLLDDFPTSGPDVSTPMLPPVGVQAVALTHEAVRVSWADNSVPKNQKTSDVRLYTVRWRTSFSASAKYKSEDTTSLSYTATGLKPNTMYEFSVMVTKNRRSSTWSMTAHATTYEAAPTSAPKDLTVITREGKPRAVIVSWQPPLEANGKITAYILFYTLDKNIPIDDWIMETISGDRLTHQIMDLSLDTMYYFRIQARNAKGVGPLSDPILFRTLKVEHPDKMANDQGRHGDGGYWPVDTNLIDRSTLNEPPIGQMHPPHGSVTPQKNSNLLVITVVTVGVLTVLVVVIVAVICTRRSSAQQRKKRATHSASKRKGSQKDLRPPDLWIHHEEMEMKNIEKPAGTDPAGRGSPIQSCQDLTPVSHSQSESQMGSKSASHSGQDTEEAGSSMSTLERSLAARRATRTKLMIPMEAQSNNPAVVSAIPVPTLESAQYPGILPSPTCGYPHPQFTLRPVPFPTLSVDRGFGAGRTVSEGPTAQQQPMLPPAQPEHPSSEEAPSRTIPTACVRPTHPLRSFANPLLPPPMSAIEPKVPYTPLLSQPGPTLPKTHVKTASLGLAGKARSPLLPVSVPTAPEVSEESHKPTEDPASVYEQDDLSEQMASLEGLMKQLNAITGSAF

B1: ezrin (endogenous, embryonic rat cortical neurons) (natural protein)
chain: MPKPINVRVTTMDAELEFAIQPNTTGKQLFDQVVKTIGLREVWYFGLQYVDNKGFPTWLKLDKKVSAQEVRKENPVQFKFRAKFYPEDVADELIQDITQKLFFLQVKEGILSDEIYCPPETAVLLGSYAVQAKFGDYNKEMHKSGYLSSERLIPQRVMDQHKLSRDQWEDRIQVWHAEHRGMLKDSAMLEYLKIAQDLEMYGINYFEIKNKKGTDLWLGVDALGLNIYEKDDKLTPKIGFPWSEIRNISFNDKKFVIKPIDKKAPDFVFYAPRLRINKRILQLCMGNHELYMRRRKPDTIEVQQMKAQAREEKHQKQLERQQLETEKKRRETVEREKEQMLREKEELMLRLQDFEQKTKRAEKELSEQIEKALQLEEERRRAQEEAERLEADRMAALRAKEELERQAQDQIKSQEQLAAELAEYTAKIALLEEARRRKEDEVEEWQHRAKEAQDDLVKTKEELHLVMTAPPPPPPPVYEPVNYHVQEGLQDEGAEPMGYSAELSSEGILDDRNEEKRITEAEKNERVQRQLLTLSNELSQARDENKRTHNDIIHNENMRQGRDKYKTLRQIRQGNTKQRIDEFEAM
fold increase relative to unstimulated neurons: 6 fold
